Assay results: the supplement of paper PMC9112550, “Optimization of the antimicrobial peptide Bac7 by deep mutational scanning” (BMC Biology, 2022)

test system: Escherichia coli TOP10; assay: shrunken log2 fold change of peptide-encoding DNA abundance (4.5 h post-induction vs induction); higher = less antimicrobial activity (less host growth inhibition); conditions: time post-induction: 4.5 h; library: site-saturation at positions 5, 18, 19, 20
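Also: peptides expressed intracellularly from a pBAD plasmid library in pooled LB shake-flask culture, induced with 0.3% L-arabinose, DNA abundance read by NGS, three biological replicates, DESeq2 with apeglm shrinkage.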

Row | Sequence | shrunken log2 fold change
1 | RRIRGRPPRLPRPRPRPHPMPRP | 0.497
2 | RRIRGRPPRLPRPRPRPHPRPRP | 0.839
3 | RRIRGRPPRLPRPRPRPHQCPRP | -0.0129
4 | RRIRGRPPRLPRPRPRPHQIPRP | 0.103
5 | RRIRGRPPRLPRPRPRPHQNPRP | 0.58
6 | RRIRGRPPRLPRPRPRPHQQPRP | 0.101
7 | RRIRGRPPRLPRPRPRPHQYPRP | -0.226
8 | RRIRGRPPRLPRPRPRPHRMPRP | -0.101
9 | RRIRGRPPRLPRPRPRPHSSPRP | -0.144
10 | RRIRGRPPRLPRPRPRPHTGPRP | -0.0945
11 | RRIRGRPPRLPRPRPRPHTSPRP | -0.00444
12 | RRIRGRPPRLPRPRPRPHVEPRP | 0.36
13 | RRIRGRPPRLPRPRPRPHVFPRP | 0.162
14 | RRIRGRPPRLPRPRPRPHYGPRP | -0.627
15 | RRIRGRPPRLPRPRPRPHYMPRP | 0.00569
16 | RRIRGRPPRLPRPRPRPIAAPRP | 2.9
17 | RRIRGRPPRLPRPRPRPIANPRP | 0.42
18 | RRIRGRPPRLPRPRPRPIATPRP | 3
19 | RRIRGRPPRLPRPRPRPICPPRP | 0.114
20 | RRIRGRPPRLPRPRPRPIDCPRP | -0.00142
21 | RRIRGRPPRLPRPRPRPIDPPRP | -0.0473
22 | RRIRGRPPRLPRPRPRPIFFPRP | 0.237
23 | RRIRGRPPRLPRPRPRPIFPPRP | 0.553
24 | RRIRGRPPRLPRPRPRPIGEPRP | 0.187
25 | RRIRGRPPRLPRPRPRPIIDPRP | 0.859

Row | Sequence | shrunken log2 fold change
26 | RRIRGRPPRLPRPRPRPIITPRP | -0.0865
27 | RRIRGRPPRLPRPRPRPIKFPRP | 0.211
28 | RRIRGRPPRLPRPRPRPIKNPRP | 0.488
29 | RRIRGRPPRLPRPRPRPIKYPRP | 0.00555
30 | RRIRGRPPRLPRPRPRPILNPRP | -0.0611
31 | RRIRGRPPRLPRPRPRPINLPRP | -0.0974
32 | RRIRGRPPRLPRPRPRPIQGPRP | -0.0132
33 | RRIRGRPPRLPRPRPRPIQYPRP | -0.0751
34 | RRIRGRPPRLPRPRPRPIRHPRP | 0.0519
35 | RRIRGRPPRLPRPRPRPIRSPRP | -0.0333
36 | RRIRGRPPRLPRPRPRPISQPRP | 0.135
37 | RRIRGRPPRLPRPRPRPITPPRP | -0.0185
38 | RRIRGRPPRLPRPRPRPIVTPRP | 0.583
39 | RRIRGRPPRLPRPRPRPIWEPRP | 0.019
40 | RRIRGRPPRLPRPRPRPIYKPRP | -0.071
41 | RRIRGRPPRLPRPRPRPKASPRP | 0.234
42 | RRIRGRPPRLPRPRPRPKCMPRP | 0.209
43 | RRIRGRPPRLPRPRPRPKDHPRP | 0.465
44 | RRIRGRPPRLPRPRPRPKEEPRP | 1.58
45 | RRIRGRPPRLPRPRPRPKEPPRP | 0.875
46 | RRIRGRPPRLPRPRPRPKFHPRP | 0.199
47 | RRIRGRPPRLPRPRPRPKFLPRP | 0.267
48 | RRIRGRPPRLPRPRPRPKGNPRP | 0.598
49 | RRIRGRPPRLPRPRPRPKGSPRP | 1.03
50 | RRIRGRPPRLPRPRPRPKHPPRP | 0.608

Row | Sequence | shrunken log2 fold change
51 | RRIRGRPPRLPRPRPRPKIYPRP | 0.000217
52 | RRIRGRPPRLPRPRPRPKKNPRP | 0.778
53 | RRIRGRPPRLPRPRPRPKKQPRP | 0.0981
54 | RRIRGRPPRLPRPRPRPKKSPRP | 0.834
55 | RRIRGRPPRLPRPRPRPKKWPRP | -0.00138
56 | RRIRGRPPRLPRPRPRPKLAPRP | 1.67
57 | RRIRGRPPRLPRPRPRPKMWPRP | 0.868
58 | RRIRGRPPRLPRPRPRPKNNPRP | 0.198
59 | RRIRGRPPRLPRPRPRPKPAPRP | 1.42
60 | RRIRGRPPRLPRPRPRPKPDPRP | 1.11
61 | RRIRGRPPRLPRPRPRPKRMPRP | 0.675
62 | RRIRGRPPRLPRPRPRPKSQPRP | 0.556
63 | RRIRGRPPRLPRPRPRPKVDPRP | 3.36
64 | RRIRGRPPRLPRPRPRPKVMPRP | 0.696
65 | RRIRGRPPRLPRPRPRPKVPPRP | 0.447
66 | RRIRGRPPRLPRPRPRPKWAPRP | 0.155
67 | RRIRGRPPRLPRPRPRPKWVPRP | 0.233
68 | RRIRGRPPRLPRPRPRPLCEPRP | 1.22
69 | RRIRGRPPRLPRPRPRPLFFPRP | 0.415
70 | RRIRGRPPRLPRPRPRPLFWPRP | 0.544
71 | RRIRGRPPRLPRPRPRPLGKPRP | 0.362
72 | RRIRGRPPRLPRPRPRPLHTPRP | 0.851
73 | RRIRGRPPRLPRPRPRPLINPRP | 0.116
74 | RRIRGRPPRLPRPRPRPLIQPRP | 0.827
75 | RRIRGRPPRLPRPRPRPLKEPRP | 0.343

Row | Sequence | shrunken log2 fold change
76 | RRIRGRPPRLPRPRPRPLKGPRP | -0.117
77 | RRIRGRPPRLPRPRPRPLLFPRP | 0.873
78 | RRIRGRPPRLPRPRPRPLLWPRP | 0.896
79 | RRIRGRPPRLPRPRPRPLNQPRP | 0.725
80 | RRIRGRPPRLPRPRPRPLPDPRP | 0.926
81 | RRIRGRPPRLPRPRPRPLQMPRP | 2.6
82 | RRIRGRPPRLPRPRPRPLRCPRP | 0.58
83 | RRIRGRPPRLPRPRPRPLRNPRP | 1.03
84 | RRIRGRPPRLPRPRPRPLRRPRP | 1.54
85 | RRIRGRPPRLPRPRPRPLSMPRP | 1.34
86 | RRIRGRPPRLPRPRPRPLSWPRP | 0.781
87 | RRIRGRPPRLPRPRPRPLVDPRP | 1.1
88 | RRIRGRPPRLPRPRPRPLYWPRP | -0.169
89 | RRIRGRPPRLPRPRPRPMAPPRP | 1.2
90 | RRIRGRPPRLPRPRPRPMCHPRP | 0.874
91 | RRIRGRPPRLPRPRPRPMDNPRP | 0.12
92 | RRIRGRPPRLPRPRPRPMFSPRP | 0.147
93 | RRIRGRPPRLPRPRPRPMGSPRP | -0.0284
94 | RRIRGRPPRLPRPRPRPMHDPRP | 0.361
95 | RRIRGRPPRLPRPRPRPMHWPRP | 0.382
96 | RRIRGRPPRLPRPRPRPMKWPRP | 3.42
97 | RRIRGRPPRLPRPRPRPMMLPRP | 0.158
98 | RRIRGRPPRLPRPRPRPMMRPRP | 1.01
99 | RRIRGRPPRLPRPRPRPMNIPRP | 0.127
100 | RRIRGRPPRLPRPRPRPMNYPRP | 0.00834

Row | Sequence | shrunken log2 fold change
101 | RRIRGRPPRLPRPRPRPMPCPRP | 0.104
102 | RRIRGRPPRLPRPRPRPMPEPRP | 0.226
103 | RRIRGRPPRLPRPRPRPMPMPRP | 0.352
104 | RRIRGRPPRLPRPRPRPMRNPRP | 1.09
105 | RRIRGRPPRLPRPRPRPMRRPRP | 1.25
106 | RRIRGRPPRLPRPRPRPMRSPRP | 0.64
107 | RRIRGRPPRLPRPRPRPMSGPRP | 0.0585
108 | RRIRGRPPRLPRPRPRPMSSPRP | -0.154
109 | RRIRGRPPRLPRPRPRPMTRPRP | 0.519
110 | RRIRGRPPRLPRPRPRPMTWPRP | 0.17
111 | RRIRGRPPRLPRPRPRPMVQPRP | 0.0883
112 | RRIRGRPPRLPRPRPRPMYIPRP | -0.396
113 | RRIRGRPPRLPRPRPRPMYYPRP | 0.197
114 | RRIRGRPPRLPRPRPRPNAMPRP | 0.988
115 | RRIRGRPPRLPRPRPRPNAWPRP | 0.728
116 | RRIRGRPPRLPRPRPRPNCAPRP | 0.811
117 | RRIRGRPPRLPRPRPRPNCCPRP | 0.245
118 | RRIRGRPPRLPRPRPRPNCKPRP | 0.21
119 | RRIRGRPPRLPRPRPRPNCVPRP | 0.543
120 | RRIRGRPPRLPRPRPRPNDLPRP | 0.338
121 | RRIRGRPPRLPRPRPRPNDWPRP | 0.235
122 | RRIRGRPPRLPRPRPRPNEMPRP | 0.703
123 | RRIRGRPPRLPRPRPRPNFQPRP | 0.122
124 | RRIRGRPPRLPRPRPRPNFRPRP | -0.00192
125 | RRIRGRPPRLPRPRPRPNFYPRP | 0.22

Row | Sequence | shrunken log2 fold change
126 | RRIRGRPPRLPRPRPRPNGDPRP | 0.115
127 | RRIRGRPPRLPRPRPRPNGQPRP | 0.386
128 | RRIRGRPPRLPRPRPRPNGSPRP | -0.0904
129 | RRIRGRPPRLPRPRPRPNHIPRP | -0.444
130 | RRIRGRPPRLPRPRPRPNHKPRP | -0.195
131 | RRIRGRPPRLPRPRPRPNHQPRP | 0.0643
132 | RRIRGRPPRLPRPRPRPNHTPRP | -0.144
133 | RRIRGRPPRLPRPRPRPNIEPRP | 0.51
134 | RRIRGRPPRLPRPRPRPNIMPRP | 0.0649
135 | RRIRGRPPRLPRPRPRPNKFPRP | -0.106
136 | RRIRGRPPRLPRPRPRPNMIPRP | 0.0819
137 | RRIRGRPPRLPRPRPRPNNEPRP | 0.306
138 | RRIRGRPPRLPRPRPRPNNPPRP | -0.171
139 | RRIRGRPPRLPRPRPRPNQCPRP | 0.0163
140 | RRIRGRPPRLPRPRPRPNQEPRP | 0.389
141 | RRIRGRPPRLPRPRPRPNRKPRP | 0.195
142 | RRIRGRPPRLPRPRPRPNSPPRP | -0.0974
143 | RRIRGRPPRLPRPRPRPNSRPRP | 0.107
144 | RRIRGRPPRLPRPRPRPNTHPRP | 0.102
145 | RRIRGRPPRLPRPRPRPNVAPRP | 1.15
146 | RRIRGRPPRLPRPRPRPNVGPRP | 0.125
147 | RRIRGRPPRLPRPRPRPNWDPRP | 0.738
148 | RRIRGRPPRLPRPRPRPPAMPRP | 1.23
149 | RRIRGRPPRLPRPRPRPPCKPRP | 0.339
150 | RRIRGRPPRLPRPRPRPPDCPRP | 1.28
